Residue numbers refer to the chain shown, from its start. Blank lines part the entries; values can stand above or below the binder they belong to.
Key:
[1] = target: T1, cynomolgus monkey FcγRIIIaS extracellular domain with C-terminal His-tag (cynomolgus monkey, UniProt Q8SPW2 21-206 at identity 1.00)); test: SPR, KD(SG1)/KD(variant)
T1 construct: also called cyno FcgRIIIaS; cynoFcγRIIIaS
T1 chain: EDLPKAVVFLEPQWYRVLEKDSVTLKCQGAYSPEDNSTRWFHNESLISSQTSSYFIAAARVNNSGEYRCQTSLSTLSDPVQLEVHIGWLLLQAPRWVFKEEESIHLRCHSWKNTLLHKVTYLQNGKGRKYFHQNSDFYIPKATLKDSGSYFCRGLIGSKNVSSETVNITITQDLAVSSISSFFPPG

[2] = target: T2, human FcγRIIb extracellular domain with C-terminal His-tag (human, UniProt P31994 43-217); test: SPR, KD(parent SG1)/KD(variant)
T2 construct: also called human FcgRIIb
T2 sequence: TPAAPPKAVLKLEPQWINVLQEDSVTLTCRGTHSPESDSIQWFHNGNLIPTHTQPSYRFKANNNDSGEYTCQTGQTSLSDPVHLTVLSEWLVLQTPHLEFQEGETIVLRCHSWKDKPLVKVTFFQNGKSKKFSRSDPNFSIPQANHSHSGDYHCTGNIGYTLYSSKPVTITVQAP

[3] = target: T3, human FcγRIIaH extracellular domain with C-terminal His-tag (human, UniProt P12318 34-217); test: SPR, KD(parent SG1)/KD(variant)
T3 construct: also called human FcgRIIaH; FcγRIIa (type H)
T3 sequence: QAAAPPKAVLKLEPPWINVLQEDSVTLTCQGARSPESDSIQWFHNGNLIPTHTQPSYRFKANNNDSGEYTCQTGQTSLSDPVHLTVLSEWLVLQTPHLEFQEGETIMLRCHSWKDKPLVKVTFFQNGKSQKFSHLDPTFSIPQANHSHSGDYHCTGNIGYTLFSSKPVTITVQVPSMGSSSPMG

[4] = target: T1, cynomolgus monkey FcγRIIIaS …; test: SPR, KD(parent SG1)/KD(variant)
[5] = target: T4, human FcγRIIIaV extracellular domain with C-terminal His-tag (human, UniProt P08637 17-208); test: SPR (BIACORE), antibody captured, FcgR analyte
T4 construct: also called human FcgRIIIaV; not shown: His-tag added to the C-terminus

[6] = target: T5, cynomolgus monkey FcγRIIb extracellular domain with C-terminal His-tag (cynomolgus monkey); test: SPR (BIACORE), antibody captured, FcgR analyte
T5 construct: also called cyno FcgRIIb; cynoFcγRIIb; not shown: His-tag added to the C-terminus
T5 chain: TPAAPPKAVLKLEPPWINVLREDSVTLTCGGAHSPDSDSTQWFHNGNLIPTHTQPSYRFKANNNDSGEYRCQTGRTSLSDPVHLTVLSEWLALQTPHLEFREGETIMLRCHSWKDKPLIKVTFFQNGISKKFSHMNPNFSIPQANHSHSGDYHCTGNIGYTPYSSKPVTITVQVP

[7] = target: T6, human FcγRIIaR extracellular domain with C-terminal His-tag (human, UniProt P12318 34-217); test: SPR (BIACORE), antibody captured, FcgR analyte
T6 construct: also called human FcgRIIaR; FcγRIIa type R; not shown: His-tag added to the C-terminus
T6 chain: T3 sequence with H134R

[8] = target: T7, cynomolgus monkey FcγRIIIaS extracellular domain with C-terminal His-tag (cynomolgus monkey, UniProt A3RFZ7 21-206 (rhesus entry)); test: SPR (BIACORE), antibody captured, FcgR analyte
T7 construct: also called cyno FcgRIIIaS; cynoFcγRIIIaS; not shown: His-tag added to the C-terminus

[9] = target: T8, cynomolgus monkey FcγRIIa3 extracellular domain with C-terminal His-tag (cynomolgus monkey); test: SPR (BIACORE), antibody captured, FcgR analyte
T8 construct: also called cyno FcgRIIa3; cynoFcγRIIa3; not shown: His-tag added to the C-terminus
T8 chain: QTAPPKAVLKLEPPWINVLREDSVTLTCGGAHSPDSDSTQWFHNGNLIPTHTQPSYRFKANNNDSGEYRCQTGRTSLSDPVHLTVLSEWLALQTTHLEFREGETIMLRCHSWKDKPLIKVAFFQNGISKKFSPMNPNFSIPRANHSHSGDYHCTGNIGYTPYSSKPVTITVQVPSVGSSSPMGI

[10] = target: T9, human FcγRIIb extracellular domain with C-terminal His-tag (human, UniProt P31994 43-217); test: SPR (BIACORE), antibody captured, FcgR analyte
T9 construct: also called human FcgRIIb; not shown: His-tag added to the C-terminus
T9 sequence: T2 sequence

[11] = target: T10, cynomolgus monkey FcγRIIb extracellular domain with C-terminal His-tag (cynomolgus monkey); test: SPR (Biacore), KD of SG1 / KD of variant
T10 construct: also called cyno FcgRIIb; cynoFcγRIIb
T10 chain: T5 chain
Protocol: (§1) The kinetic analysis of interactions between these antibodies and FcγR was carried out using BIACORE® T200 or BIACORE® 4000 (GE Healthcare). HBS-EP+ (GE Healthcare) was used as the running buffer, and the measurement temperature was set to 25° C. […] After the measurement, the antibody captured on the chip was washed off by allowing reaction with 10 mM glycine-HCl, pH1.5 and 25 mM NaOH so that the chip was regenerated and used repeatedly. The sensorgrams obtained as measurement results were analyzed by the 1:1 Langmuir binding model using the BIACORE® Evaluation Software to calculate the binding rate constant ka (L/mol/s) and dissociation rate constant kd (1/s), and the dissociation constant KD (mol/L) was calculated from these values. […] Regarding such interactions, KD values were calculated using the following 1:1 binding model described in BIACORE® T100 Software Handbook BR1006-48 Edition AE.

[12] = target: T11, human FcγRIIaR extracellular domain with C-terminal His-tag (human, UniProt P12318 34-217); test: SPR (Biacore), antibody captured, FcgR analyte
T11 construct: also called human FcgRIIaR; FcγRIIa (type R)
T11 chain: T3 sequence with H134R
Protocol: as §1

[13] = target: T12, cynomolgus monkey FcγRIIa2 extracellular domain with C-terminal His-tag (cynomolgus monkey); test: SPR (Biacore), KD of SG1 / KD of variant
T12 construct: also called cyno FcgRIIa2; cynoFcγRIIa2
T12 chain: T8 chain with I127K, K130N, P133H, R142Q
Protocol: as §1

[14] = target: T13, cynomolgus monkey FcγRIIa3 extracellular domain with C-terminal His-tag (cynomolgus monkey); test: SPR (Biacore), KD of SG1 / KD of variant
T13 construct: also called cyno FcgRIIa3; cynoFcγRIIa3
T13 chain: T8 chain
Protocol: as §1

T4 sequence (P08637 17-208 F176V): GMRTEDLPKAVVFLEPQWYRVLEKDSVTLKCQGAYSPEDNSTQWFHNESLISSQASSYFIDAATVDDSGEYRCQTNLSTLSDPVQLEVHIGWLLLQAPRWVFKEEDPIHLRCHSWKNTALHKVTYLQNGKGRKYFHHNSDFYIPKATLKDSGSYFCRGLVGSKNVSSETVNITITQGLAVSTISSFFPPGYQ

B1: M103205H795-MY536/M103202L889-SK1 (antibody, human IgG1, kappa, name in EU numbering)
heavy: QVTLKESGPVLVKPTETLTLTCTVSGIDLSHDDISWVRQAPGKGLEWVGIISYAGSTYYASWAKGRLTISKDTSKNQVVLTMTNMDPVDTATYYCARGVPAYSHGGDLWGQGTLVTVSSASTKGPSVFPLAPSSKSTSGGTAALGCLVKDYFPEPVTVSWNSGALTSGVHTFPAVLQSSGLYSLSSVVTVPSSSLGTQTYICNVNHKPSNTKVDKKVEPKSCDKTHTCPPCPGPEWLTGPVVFLFPPKPKDTLMISRTPEVTCVVVDVSDEDPEVKFNWYVDGVEVHNAKTKPREEQYNSTYRVVSVLTVLHQDWLNGKEYKCKVSNKALPKPIEKTISKAKGQPREPQVYTLPPSREEMTKNQVSLTCLVKGFYPSDIAVEWESNGQPENNYKTTPPVLDSDGSFFLYSKLTVDKSRWQQGNVFSCSVMHEALHNHYTQKSLSLSP
light: DIVMTQSPATLSLSPGERATLSCTSSQSVYHANWLSWFQQKPGQPPKLLIYWASTLAYGVPSRFSGSGSGTDFTLTISSLQPEDAATYYCAGGYGGGRYAFGQGTKVEIKRTVAAPSVFIFPPSDEQLKSGTASVVCLLNNFYPREAKVQWKVDNALQSGNSQESVTEQDSKDSTYSLSSTLTLSKADYEKHKVYACEVTHQGLSSPVTKSFNRGEC
notes: copies: 2 + 2
- KD fold (SG1 = 1) [1]: 0.23 fold

B4: MS1032LO06-SG1034 (antibody, human IgG1, kappa, name in EU numbering)
heavy: B1 heavy with G233A, W236L, V241S, Q313R, D415K, N436A
light: B1 light
notes: tied to rows r12/r30 by row order only; also called MS103205H795-SG1034; copies: 2 + 2
- KD fold (SG1 = 1) [2]: 1 fold
- KD fold (SG1 = 1) [3]: 2.7 fold
- KD fold (SG1 = 1) [4]: 0.11 fold

B5: M103205H795-MY210/M103202L889-SK1 (antibody, human IgG1, kappa, name in EU numbering)
heavy: B1 heavy with G233A, W236L, T238N, V241S, K328T
light: B1 light
notes: Fc variant of MS1032LO06-SG1; positions in EU numbering
- Kd [5]: 31000 nM
- Kd [6]: 280 nM
- Kd [7]: 1400 nM
- Kd [8]: 2400 nM
- Kd [9]: 2300 nM

B7: M103205H795-MY288/M103202L889-SK1 (antibody, human IgG1, kappa, name in EU numbering)
heavy: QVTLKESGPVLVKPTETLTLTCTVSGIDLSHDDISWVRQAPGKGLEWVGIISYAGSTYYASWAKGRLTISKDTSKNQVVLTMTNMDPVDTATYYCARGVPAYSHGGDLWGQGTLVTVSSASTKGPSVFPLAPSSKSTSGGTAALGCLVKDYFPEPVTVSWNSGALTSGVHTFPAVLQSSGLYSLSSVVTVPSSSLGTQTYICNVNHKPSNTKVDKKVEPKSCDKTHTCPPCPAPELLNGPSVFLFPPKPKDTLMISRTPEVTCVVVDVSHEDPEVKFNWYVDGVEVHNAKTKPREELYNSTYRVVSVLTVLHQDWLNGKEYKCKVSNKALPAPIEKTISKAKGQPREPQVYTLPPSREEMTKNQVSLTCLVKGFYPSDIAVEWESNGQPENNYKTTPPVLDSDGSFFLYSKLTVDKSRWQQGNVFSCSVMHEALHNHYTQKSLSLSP
light: B1 light
notes: as for B5
- Kd [10]: 5100 nM
- Kd [6]: 1200 nM
- Kd [8]: 1.3 nM

B9: M103205H795-MY445/M103202L889-SK1 (antibody, human IgG1, kappa)
heavy: B1 heavy with G233A, P234G, W236L, V241S
light: B1 light
notes: Substitutions in EU numbering on SG1
- Kd [12]: 1100 nM
- KD fold (SG1 = 1) [13]: 0.5 fold

B13: MS1032LO19-SG1080 (antibody, name in EU numbering)
heavy: QVQLVESGGGLVQPGGSLRLSCAVSGIDLSHDDISWVRQAPGKGLEWVSIISYAGSTYYASWAKGRLTISKDTSKNQVVLTMTNMDPVDTATYYCARGVPAYSHGGDLWGQGTLVTVSSASTKGPSVFPLAPSSKSTSGGTAALGCLVKDYFPEPVTVSWNSGALTSGVHTFPAVLQSSGLYSLSSVVTVPSSSLGTQTYICNVNHKPSNTKVDKKVEPKSCDKTHTCPPCPAPELLNGPSVFLFPPKPKDTLMISRTPEVTCVVVDVSDEDPEVKFNWYVDGVEVHNAKTKPREELYNSTYRVVSVLTVLHRDWLNGKEYKCKVSNTALPKPIEKTISKAKGQRREPQVYTLPPSREEMTKNQVSLTCLVKGFYPSDIAVEWESNGQPENNYKTTPPVLDSDGSFFLYSKLTVDKSRWQQGNVFSCSVMHEALHAHYTRKELSLSP
light: B1 light with S25T, A32E
notes: tied to rows r18/r36 by row order only; also called MS103240H795-SG1080
- KD fold (SG1 = 1) [3]: 2.5 fold
- KD fold (SG1 = 1) [4]: 0.18 fold

Now from value to binder:

- KD fold (SG1 = 1) [1]: 0.25 fold
B2: M103205H795-MY538/M103202L889-SK1 (antibody, human IgG1, kappa, name in EU numbering)
heavy: B1 heavy with V241S, Q297L
light: B1 light
notes: copies: 2 + 2

- KD fold (SG1 = 1) [2]: 1 fold
- KD fold (SG1 = 1) [3]: 0.5 fold
- KD fold (SG1 = 1) [4]: 0.06 fold
B3: MS1032LO06-SG1033 (antibody, human IgG1, kappa, name in EU numbering)
heavy: B1 heavy with G233A, W236L, T238N, V241S, N436A
light: B1 light
notes: tied to rows r11/r29 by row order only; also called MS103205H795-SG1033; copies: 2 + 2

- Kd [6]: 570 nM
- Kd [8]: 2600 nM
- Kd [9]: 2900 nM
B6: M103205H795-MY212/M103202L889-SK1 (antibody, human IgG1, kappa, name in EU numbering)
heavy: B1 heavy with G233A, W236L, T238N, Q297L, K328T
light: B1 light
notes: as for B5

- KD fold (SG1 = 1) [11]: 1 fold
B8: M103205H795-MY442/M103202L889-SK1 (antibody, human IgG1, kappa)
heavy: B1 heavy with G233A, P234D, W236L, V241S
light: B1 light
notes: as for B9

- Kd [12]: 640 nM
- KD fold (SG1 = 1) [14]: 2.5 fold
B10: M103205H795-MY451/M103202L889-SK1 (antibody, human IgG1, kappa)
heavy: B1 heavy with G233A, P234N, W236L, V241S
light: B1 light
notes: as for B9

- KD fold (SG1 = 1) [13]: 1.8 fold
- KD fold (SG1 = 1) [14]: 3.5 fold
- KD fold (SG1 = 1) [11]: 2.5 fold
B11: M103205H795-MY465/M103202L889-SK1 (antibody)
heavy: B1 heavy with G233K, W236L, V241S
light: B1 light
notes: as for B9

- KD fold (SG1 = 1) [11]: 3.5 fold
B12: M103205H795-MY467/M103202L889-SK1 (antibody, human IgG1, kappa)
heavy: B1 heavy with G233M, W236L, V241S
light: B1 light
notes: as for B9
